# T1: recombinant γc-Fc (Homo sapiens (Human), UniProt P31785 23-262)
# T1 construct: also called CD132-Fc; not shown: Fc part of the fusion not described
# T1 sequence: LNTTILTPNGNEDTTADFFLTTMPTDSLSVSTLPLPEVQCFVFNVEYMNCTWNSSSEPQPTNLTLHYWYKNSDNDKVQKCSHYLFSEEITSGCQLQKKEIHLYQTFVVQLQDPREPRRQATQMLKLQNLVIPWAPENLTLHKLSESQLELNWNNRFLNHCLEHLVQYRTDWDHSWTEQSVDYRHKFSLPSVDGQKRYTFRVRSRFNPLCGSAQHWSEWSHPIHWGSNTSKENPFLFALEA
# T2: recombinant IL-2Rβ-Fc (Homo sapiens (Human), UniProt P14784 27-240)
# T2 construct: also called CD122-Fc; not shown: Fc part of the fusion not described
# T2 sequence: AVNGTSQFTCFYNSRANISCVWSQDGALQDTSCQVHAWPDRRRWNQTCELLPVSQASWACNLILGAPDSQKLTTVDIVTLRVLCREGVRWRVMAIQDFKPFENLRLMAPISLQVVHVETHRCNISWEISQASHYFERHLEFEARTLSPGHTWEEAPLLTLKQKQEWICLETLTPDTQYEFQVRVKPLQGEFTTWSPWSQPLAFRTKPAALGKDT
# T3: monomeric γc (Homo sapiens (Human), UniProt P31785 23-262, limits assumed)
# T3 construct: Neither the limits nor the species of the construct are stated; also called CD132; common γ chain
# T3 sequence: T1 sequence
# T4: monomeric IL-2Rβ (Homo sapiens (Human), UniProt P14784 27-240, limits assumed)
# T4 construct: Neither the limits nor the species of the construct are stated; also called CD122
# T4 sequence: T2 sequence
# B1: P2C4_FW2/P1A3_FW2 (bispecific antibody)
# chain 1: not shown
# chain 2: EVQLVESGGGLVQPGGSLRLSCAASGGSFSGYYWSWVRQAPGKGLEWVSEINHSGSTNYNPSLKSRFTISRDNSKNTLYLQMNSLRAEDTAVYYCARSPGGYSGGYFQHWGQGTLVTVSSGGGGSGGGGSGGGGSDIQMTQSPSSLSASVGDRVTITCRSSQSLLHSNGYNYLDWYQQKPGKAPKLLIYLGSNRDSGVPSRFSGSGSGTDFTLTISSLQPEDFATYYCMQGTHWPWTFGQGTKVEIKNSGAGTAAATHTCPPCPAPEAAGGPSVFLFPPKPKDTLMISRTPEVTCVVVDVSHEDPEVKFNWYVDGVEVHNAKTKPREEQYNSTYRVVSVLTVLHQDWLNGKEYKCKVSNKALPAPIEKTISKAKGQPREPQVCTLPPSRDELTKNQVSLSCAVKGFYPSDIAVEWESNGQPENNYKTTPPVLDSDGSFFLVSKLTVDKSRWQQGNVFSCSVMHEALHNHYTQKSLSLSPGK
# modifications: Biotinylated for the ELISA; site not given.
# notes: also called scFv (P2C4_FW2): scFv (P1A3_FW2)-KiH-Fc
# B2: P2C4/P1A3 Crossmab (bispecific antibody, V domains shown)
# VH 1: EVQLVQSGAEVKKPGSSVKVSCKASGYTFTNYYMHWVRQAPGQGLEWMGAIMPSRGGTSYPQKFQGRVTMTGDTSTSTVYMELSSLRSEDTAVYYCARGEYYYDSSGYYYWGQGTLVTVSS
# VL 1: QSALTQPASVSGSPGQSIAISCTGTSSDIGHYDFVSWYQQHPGTAPKLIIYDINNRPSGISNRFSGSKSDNMASLTISGLQPEDEADYYCSAYTSSDTLVFGGGTKLTVL
# VH 2: QVQLQQWGAGLLKPSETLSLTCAVYGGSFSGYYWSWIRQPPGKGLEWIGEINHSGSTNYNPSLKSRATISVDTSKNQFSLKLSSVTAADTAVYYCATSPGGYSGGYFQHWGQGTLVTVSS
# VL 2: not shown
# modifications: Biotinylated for the ELISA; site not given.
# notes: also called Fab (P2C4): Fab (P1A3) in CrossMab format; copies: 1 + 1 + 1 + 1
# B3: P2C4/P1A10 bispecific anti-IL-2Rβ/γc antibody, scFv-KiH-Fc format (bispecific antibody)
# chain 1: not shown
# chain 2: QVQLQQSGAEVKKPGSSVKVSCKASGGTFSSYAISWVRQAPGQGLEWMGGFDPEDGETIYAQKFQGRVTMTEDTSTDTAYMELSSLRSEDTAVYYCATDLRIPYYYDNPWGQGTLVTVSSGGGGSGGGGSGGGGSEIVLTQSPLSLPVTPGEPASISCRSSQSLLHSNGYNYLNWYLQKPGQSPQLLIYLGSDRASGVPDRFSGSGSGTDFTLKISRVEAEDVGVYYCMQALQTPTTFGGGTKVEIKNSGAGTAAATHTCPPCPAPEAAGGPSVFLFPPKPKDTLMISRTPEVTCVVVDVSHEDPEVKFNWYVDGVEVHNAKTKPREEQYNSTYRVVSVLTVLHQDWLNGKEYKCKVSNKALPAPIEKTISKAKGQPREPQVCTLPPSRDELTKNQVSLSCAVKGFYPSDIAVEWESNGQPENNYKTTPPVLDSDGSFFLVSKLTVDKSRWQQGNVFSCSVMHEALHNHYTQKSLSLSPGK
# Assays:
# [1] = target: T1, recombinant γc-Fc; experiment: ELISA on coated γc-Fc ('Binding to IL-2RG (Fc)'), biotinylated antibody, streptavidin-HRP, the axis is [Ab]/nM
# Method: (§1) Binding of P2C4/P1A3 to IL-2Rβ or γc was measured by ELISA analysis, using recombinant IL-2Rβ-Fc and γc-Fc coated on maxisorp plates.
# (§2) Biotinylated P2C4/P1A3 was added at various concentrations. Detection of binding was performed using a colorimetric assay using HRP-conjugated streptavidin which converts TMB substrate to a blue solution. The reaction was stopped using hydrochloric acid, and absorbance was measured at 450 nm and 670 nm.
# [2] = target: T2, recombinant IL-2Rβ-Fc; experiment: ELISA on coated IL-2Rβ-Fc ('Binding to IL-2RB (Fc)'), biotinylated antibody, streptavidin-HRP, the axis is [Ab]/nM
# Method: as §1, §2
# [3] = target: T3, monomeric γc; experiment: BLI, antibody captured on anti-human Fc biosensor tips, monomeric γc in solution, 1:1 Langmuir fit
# Method: (§3) The affinity of binding of P2C4/P1A3 and P2C4/P1A10 to IL-2Rβ and γc was measured by Bio-Layer Interferometry (BLI).
# (§4) P2C4/P1A3 or P2C4/P1A10 were captured on anti-human Fc biosensor tips, and 5 different concentrations of monomeric IL-2Rβ or γc were allowed to bind to the captured antibodies. Dissociation of the antigen from the immobilised antibodies was performed for 5 min. Binding affinity was calculated by fitting binding curves using the 1:1 Langmuir model.
# [4] = target: T4, monomeric IL-2Rβ; experiment: BLI, antibody captured on anti-human Fc biosensor tips, monomeric IL-2Rβ in solution, 1:1 Langmuir fit
# Method: as §3, §4
Binder,EC50 [1] [nM],EC50 [2] [nM],Kd [3] [nM],koff [3] [s⁻¹],kon [3] [M⁻¹ s⁻¹],Kd [4] [nM],koff [4] [s⁻¹],kon [4] [M⁻¹ s⁻¹]
B1,48.8,1.92,–,–,–,–,–,–
B2,21.2,0.772,–,–,–,–,–,–
B3,–,–,61.8,0.00961,156000,28.2,0.0044,156000

# From patent US20220251221A1 (AGENCY FOR SCIENCE TECHNOLOGY AND RESEARCH, published 2022)
